Data taken from paper PMC6125409.
Like-named read-outs stand apart in the source and are kept apart here.

Tests used:
[1] = target: mCherry-EpFL (N-terminal fusion of mCherry to full-length EpCAM) (UniProt P16422); assay: FRET or BRET; FLIM-FRET, donor sfGFP and acceptor mCherry both N-terminal on EpFL, co-transfected in the same cell (cis; GFPEX/CherryEX), equimolar plasmids; HEK 293 T and HCT8 #L13 cells, fixed; whole cell membrane region
[2] = target: EpCAM ECD (Homo sapiens) (UniProt P16422); conditions: cited from earlier work
[3] = target: EpCAM ECD (Homo sapiens) (UniProt P16422); conditions: cited from earlier work; remark: listed apart in the source

“sfGFP-EpFL (N-terminal fusion of sfGFP to full-length EpCAM) (from UniProt P16422 24-314) (receptor)” showed an average donor fluorescence lifetime [1] of 1.6 ns.
For “EpCAM trans-tetramer (dimer-dimer) ECD (from UniProt P16422)”, the Kd [2] is listed as 10 µM.
In the case of “EpCAM cis-dimer ECD (from UniProt P16422)”, the Kd [3] is given as 0.01 µM.
